Consider twelve molecules from paper PMC6130949, “The rational design of affinity-attenuated OmCI for the purification of complement C5” (The Journal of Biological Chemistry, 2018).

The target of assay [1] is Complement component C5 from human serum (human (endogenous in human serum)).
The target in assay [2] is Wildtype OmCI (Ornithodoros moubata) (UniProt Q5YD59). Briefly: differential scanning calorimetry; C5 (CompTech) and OmCI mixed in 1:1.25 molar ratio, at least 6 h at 4 °C, PBS; heated 10-100 °C at 1 °C/min; n = 1.
Assay [3] has as its target OmCI D167A (Ornithodoros moubata) (UniProt Q5YD59). Briefly: SPR; single-cycle kinetics, Biacore 8K; OmCI amine coupled to a CM5 chip (~50 RU); C5 (CompTech) as analyte, 9-point 3-fold titration from 500 nM in HBS-EP, 40 ul/min, contact 230 s, dissociation 900 s; single-site binding model. In general terms: In SPR one partner is held on a chip, and binding of the other changes the refractive index at the surface.

In assay [4] the target is OmCI E141A (Ornithodoros moubata) (UniProt Q5YD59). Described as above.
The target in assay [5] is OmCI E141A/H164A (Ornithodoros moubata) (UniProt Q5YD59). The assay is described as above.
The target in assay [6] is OmCI E141A/L140G (Ornithodoros moubata) (UniProt Q5YD59). Described as above.
Assay [7] deals with OmCI E141A/R47A (Ornithodoros moubata) (UniProt Q5YD59). The description is as above.
For assay [8], the target named is OmCI E141A/R47A/H164A/L140G (Ornithodoros moubata) (UniProt Q5YD59). The description is as above.
In assay [9] the target is OmCI E141A/R47A/L140G (Ornithodoros moubata) (UniProt Q5YD59). The description is as above.
In assay [10] the target is OmCI F36W (Ornithodoros moubata) (UniProt Q5YD59). The description is as above.
In assay [11] the target is OmCI H117A (Ornithodoros moubata) (UniProt Q5YD59). The description is as above.
For assay [12], the target named is OmCI H164A (Ornithodoros moubata) (UniProt Q5YD59). Described as above.
Assay [13] addresses OmCI L140G (Ornithodoros moubata) (UniProt Q5YD59). Described as above.
Assay [14] has as its target OmCI M134G (Ornithodoros moubata) (UniProt Q5YD59). The assay is described as above.
Assay [15] deals with OmCI R47A (Ornithodoros moubata) (UniProt Q5YD59). The description is as above.
The target in assay [16] is OmCI E141A (Ornithodoros moubata) (UniProt Q5YD59). The assay can be described thus: SPR; multicycle kinetics, Biacore 8K; OmCI biotinylated on the N-terminal AVI tag and captured on an SA streptavidin chip (20-100 RU); C5 as analyte, 7-point 3-fold titration from 250 nM in HBS-EP, 30 ul/min, contact 240 s, dissociation 3600 s; regeneration with 0.1 M citric acid pH 2.0; single-site binding model.

For assay [17], the target named is OmCI E141A/H164A (Ornithodoros moubata) (UniProt Q5YD59). The description is as above.
Assay [18] concerns the target OmCI E141A/R47A (Ornithodoros moubata) (UniProt Q5YD59). The description is as above.
Assay [19] concerns the target Wildtype OmCI (Ornithodoros moubata) (UniProt Q5YD59). Described as above.
The target of the next assay is T1, Complement component C5 (UniProt P01031 19-673; P01031 678-1676).
T1 construct: complement C5 beta chain; complement C5 alpha chain; Commercial C5 from CompTech; source: bought: CompTech
Briefly: SPR; multicycle kinetics, Biacore 8K; biotinylated OmCI captured by its N-terminal AVI tag on an SA streptavidin chip; C5 as analyte, 7-point 3-fold titration from 250 nM in HBS-EP, 30 ul/min, contact 240 s, dissociation 3600 s; single-site binding model; values of the individual occasions (n=1 to n=4). The conditions noted are these: both partners purified.

Several values for one entry are separate records, joined by “and”; a condition that tells them apart may be missing. Equal entries are not always repeated. Bounds are passed on as bounds.

T1 sequence (P01031 19-673, chain 1 of 2): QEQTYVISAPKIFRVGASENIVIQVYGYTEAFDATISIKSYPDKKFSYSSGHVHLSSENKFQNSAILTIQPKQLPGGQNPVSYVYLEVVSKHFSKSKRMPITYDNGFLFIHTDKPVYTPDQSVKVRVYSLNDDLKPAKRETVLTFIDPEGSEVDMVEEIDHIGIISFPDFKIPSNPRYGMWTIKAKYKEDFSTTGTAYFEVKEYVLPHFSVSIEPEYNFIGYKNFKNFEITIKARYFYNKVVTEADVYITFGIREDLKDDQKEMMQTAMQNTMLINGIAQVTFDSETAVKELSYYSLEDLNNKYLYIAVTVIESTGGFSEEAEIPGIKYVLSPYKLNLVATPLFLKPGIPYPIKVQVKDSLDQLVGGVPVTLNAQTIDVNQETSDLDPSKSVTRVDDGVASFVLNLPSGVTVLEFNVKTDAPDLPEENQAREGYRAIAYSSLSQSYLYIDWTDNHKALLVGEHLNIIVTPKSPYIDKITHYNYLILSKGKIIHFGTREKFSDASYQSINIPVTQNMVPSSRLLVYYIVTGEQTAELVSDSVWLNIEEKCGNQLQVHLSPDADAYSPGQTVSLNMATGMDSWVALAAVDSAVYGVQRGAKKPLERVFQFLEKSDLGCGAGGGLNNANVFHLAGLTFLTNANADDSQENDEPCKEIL
T1 sequence (P01031 678-1676, chain 2 of 2): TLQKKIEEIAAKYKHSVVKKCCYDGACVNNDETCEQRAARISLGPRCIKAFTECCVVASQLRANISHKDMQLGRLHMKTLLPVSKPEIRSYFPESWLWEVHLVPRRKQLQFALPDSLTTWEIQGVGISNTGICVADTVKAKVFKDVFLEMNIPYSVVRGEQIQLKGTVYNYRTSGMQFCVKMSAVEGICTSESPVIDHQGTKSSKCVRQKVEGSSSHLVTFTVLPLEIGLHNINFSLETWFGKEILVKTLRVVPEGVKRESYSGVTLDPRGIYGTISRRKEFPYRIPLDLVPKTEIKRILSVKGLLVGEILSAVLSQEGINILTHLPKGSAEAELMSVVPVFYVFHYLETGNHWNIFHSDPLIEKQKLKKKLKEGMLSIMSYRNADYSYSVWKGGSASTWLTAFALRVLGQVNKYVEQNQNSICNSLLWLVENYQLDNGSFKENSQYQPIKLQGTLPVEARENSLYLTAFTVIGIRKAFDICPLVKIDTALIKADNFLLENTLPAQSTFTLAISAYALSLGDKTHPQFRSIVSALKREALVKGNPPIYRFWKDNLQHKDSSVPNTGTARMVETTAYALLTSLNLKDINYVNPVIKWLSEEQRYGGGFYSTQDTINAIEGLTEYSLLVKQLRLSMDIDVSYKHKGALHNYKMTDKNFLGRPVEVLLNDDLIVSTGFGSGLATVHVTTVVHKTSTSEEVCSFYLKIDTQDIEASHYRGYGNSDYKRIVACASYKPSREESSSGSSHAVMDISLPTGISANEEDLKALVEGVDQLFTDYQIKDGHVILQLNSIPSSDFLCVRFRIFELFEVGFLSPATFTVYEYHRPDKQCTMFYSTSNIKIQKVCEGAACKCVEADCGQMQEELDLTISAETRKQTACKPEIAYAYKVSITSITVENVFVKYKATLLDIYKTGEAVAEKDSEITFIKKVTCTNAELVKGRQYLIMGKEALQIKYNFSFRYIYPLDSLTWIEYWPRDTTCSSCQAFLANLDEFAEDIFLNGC

Consider “OmCI R47A (from UniProt Q5YD59 19-168) (natural protein)”, for which, in assay [1], the pIC50, alternative pathway (AP) complement activation ELISA (inhibition of MAC formation), OmCI titrated from 5 uM in human serum was < 9 −log M.

The Kd is a measure of binding affinity in units of concentration. Higher therefore signals weaker binding. As usually defined, the koff is the first-order rate constant of dissociation. Read a high koff as fast dissociation. As a reminder, the kon is the rate constant with which the complex forms. Higher therefore signals faster complex formation. The stoichiometry N is the number of molecules, sites or subunits per partner or assembly. “Complement component C5 (CompTech) (natural protein)”: in assay [2], the ΔTm of the main C5 unfolding peak on complexing worked out at 8.6 °C. The approximate fold change in koff relative to WT OmCI in assay [3] came out at 2.4 fold; in assay [4] it was 29.1 fold; in assay [5], 197 fold; in assay [6] it was 31.3 fold; in [7], 973 fold; in assay [8] it was 5500 fold. Further, the approximate fold change in koff relative to WT OmCI in assay [9] is 1270 fold; in assay [10], 2.6 fold; in [11] it was 1.1 fold; in assay [12], 3.5 fold; in assay [13] it was 1 fold; in assay [14], 229 fold. In assay [15], the approximate fold change in koff relative to WT OmCI amounted to 4.1 fold. Moreover, the Kd was 0.709 nM in assay [16], 4.09 nM in assay [17], 13.1 nM in [18] and less than 0.1 nM in assay [19]. The koff was 0.000304 s⁻¹ in assay [16], 0.00406 s⁻¹ in assay [17], 0.0318 s⁻¹ in assay [18] and less than 1e-05 s⁻¹ in [19]. Also, the kon stood at 481000 M⁻¹ s⁻¹ in assay [16], 1.13e+06 M⁻¹ s⁻¹ in assay [17], 3.01e+06 M⁻¹ s⁻¹ in assay [18] and 588000 M⁻¹ s⁻¹ in assay [19]. The same molecule had a stoichiometry N in assay [19] of less than 1.

Regarding “OmCI H164A (from UniProt Q5YD59 19-168) (natural protein)”, in assay [1], the pIC50, alternative pathway (AP) complement activation ELISA (inhibition of MAC formation), OmCI titrated from 5 uM in human serum was < 8.8 −log M.

As to “OmCI E141A (from UniProt Q5YD59 19-168) (natural protein)”, the pIC50, alternative pathway (AP) complement activation ELISA (inhibition of MAC formation), OmCI titrated from 5 uM in human serum in assay [1] is < 8.9 −log M.

For “Complement component C5 from human serum (natural protein)”, the Kd in [19] was less than 0.1 nM.

Consider “OmCI E141A/R47A (from UniProt Q5YD59 19-168) (natural protein)”, for which the pIC50, alternative pathway (AP) complement activation ELISA (inhibition of MAC formation), OmCI titrated from 5 uM in human serum in [1] is 8 −log M.

Take “OmCI E141A/H164A (from UniProt Q5YD59 19-168) (natural protein)”: in [1], the pIC50, alternative pathway (AP) complement activation ELISA (inhibition of MAC formation), OmCI titrated from 5 uM in human serum was 8.5 −log M.

In the case of “Wildtype OmCI (from UniProt Q5YD59 19-168) (natural protein)”, the pIC50, alternative pathway (AP) complement activation ELISA (inhibition of MAC formation), OmCI titrated from 5 uM in human serum in assay [1] is < 9 −log M.

B1: Wild-type OmCI with N-terminal 10xHis, TEV site and AVI tag (natural protein)
chain: DSESDCTGSEPVDAFQAFSEGKEAYVLVRSTDPKARDCLKGEPAGEKQDNTLPVMMTFKNGTDWASTDWTFTLDGAKVTATLGNLTQNREVVYDSQSHHCHVDKVEKEVPDYEMWMLDAGGLEVEVECCRQKLEELASGRNQMYPHLKDC
modifications: biotin on the N-terminal AVI tag (Bir-A)
notes: OmCI of Ornithodoros moubata, UniProt Q5YD59, without its signal peptide; No TEV cleavage is described; also called wt OmCI; OmCI WT; source: ExpiHEK 293, transfected, purified from supernatant (nickel-Sepharose Excel); not shown: AVI tag, N-terminal, kept
On to B1, for which, in the assay with Complement component C5, the Kd is less than 0.1 nM; the koff is less than 1e-05 s⁻¹; the kon was 384000 M⁻¹ s⁻¹ and 400000 M⁻¹ s⁻¹ and 1.14e+06 M⁻¹ s⁻¹ and 432000 M⁻¹ s⁻¹.

B2: OmCI E141A with N-terminal 10xHis, TEV site and AVI tag (natural protein)
chain: DSESDCTGSEPVDAFQAFSEGKEAYVLVRSTDPKARDCLKGEPAGEKQDNTLPVMMTFKNGTDWASTDWTFTLDGAKVTATLGNLTQNREVVYDSQSHHCHVDKVEKEVPDYEMWMLDAGGLAVEVECCRQKLEELASGRNQMYPHLKDC
modifications: biotin on the N-terminal AVI tag (Bir-A)
notes: OmCI of Ornithodoros moubata, UniProt Q5YD59, without its signal peptide; also called OmCI WT E141A; source: ExpiHEK 293, transfected, purified from supernatant (nickel-Sepharose Excel); not shown: AVI tag, N-terminal, kept
In the case of B2, in the assay with Complement component C5, the Kd is 0.896 nM and 0.395 nM and 0.707 nM and 0.837 nM; the koff was 0.000307 s⁻¹ and 0.000328 s⁻¹ and 0.000273 s⁻¹; the kon is 343000 M⁻¹ s⁻¹ and 830000 M⁻¹ s⁻¹ and 367000 M⁻¹ s⁻¹ and 386000 M⁻¹ s⁻¹.

B3: OmCI E141A/R47A with N-terminal 10xHis, TEV site and AVI tag (natural protein)
chain: DSESDCTGSEPVDAFQAFSEGKEAYVLVASTDPKARDCLKGEPAGEKQDNTLPVMMTFKNGTDWASTDWTFTLDGAKVTATLGNLTQNREVVYDSQSHHCHVDKVEKEVPDYEMWMLDAGGLAVEVECCRQKLEELASGRNQMYPHLKDC
modifications: biotin on the N-terminal AVI tag (Bir-A)
notes: OmCI of Ornithodoros moubata, UniProt Q5YD59, without its signal peptide; source: ExpiHEK 293, transfected, purified from supernatant (nickel-Sepharose Excel); not shown: AVI tag, N-terminal, kept
Regarding B3, the Kd with Complement component C5 was 17.6 nM and 7.26 nM and 9.55 nM and 18 nM.

B4: OmCI E141A/H164A with N-terminal 10xHis, TEV site and AVI tag (natural protein)
chain: DSESDCTGSEPVDAFQAFSEGKEAYVLVRSTDPKARDCLKGEPAGEKQDNTLPVMMTFKNGTDWASTDWTFTLDGAKVTATLGNLTQNREVVYDSQSHHCHVDKVEKEVPDYEMWMLDAGGLAVEVECCRQKLEELASGRNQMYPALKDC
modifications: biotin on the N-terminal AVI tag (Bir-A)
notes: as for B3
Turning to B4, in the assay with Complement component C5, the Kd is 5.13 nM and 5.35 nM and 1.8 nM; the koff is 0.00438 s⁻¹ and 0.00489 s⁻¹ and 0.00292 s⁻¹; the kon was 855000 M⁻¹ s⁻¹ and 913000 M⁻¹ s⁻¹ and 1.62e+06 M⁻¹ s⁻¹.
